Experimental data published in PMC5338821, “Structure determination of a major facilitator peptide transporter: Inward facing PepTSt from Streptococcus thermophilus crystallized in space group P3_(1)21” (PLoS ONE, 2017).

Target: the molecule itself
Test: SEC; PepTSt solubilized and purified in LMNG (0.01%), final SEC step

B1: peptide transporter PepTSt from Streptococcus thermophilus (wild-type) (natural protein)
chain: MEDKGKTFFGQPLGLSTLFMTEMWERFSYYGMRAILLYYMWFLISTGDLHITRATAASIMAIYASMVYLSGTIGGFVADRIIGARPAVFWGGVLIMLGHIVLALPFGASALFGSIILIIIGTGFLKPNVSTLVGTLYDEHDRRRDAGFSIFVFGINLGAFIAPLIVGAAQEAAGYHVAFSLAAIGMFIGLLVYYFGGKKTLDPHYLRPTDPLAPEEVKPLLVKVSLAVAGFIAIIVVMNLVGWNSLPAYINLLTIVAIAIPVFYFAWMISSVKVTSTEHLRVVSYIPLFIAAVLFWAIEEQGSVVLATFAAERVDSSWFPVSWFQSLNPLFIMLYTPFFAWLWTAWKKNQPSSPTKFAVGLMFAGLSFLLMAIPGALYGTSGKVSPLWLVGSWALVILGEMLISPVGLSVTTKLAPKAFNSQMMSMWFLSSSVGSALNAQLVTLYNAKSEVAYFSYFGLGSVVLGIVLVFLSKRIQGLMQGVE
notes: PepTSt, major facilitator superfamily peptide transporter of Streptococcus thermophilus; Dimer in LMNG and DDM, monomer in DM and NM; also called Ce27; source: Escherichia coli C41, membrane solubilization, purified (IMAC, SEC) in DDM, DM, NM or LMNG; not shown: hexahistidine, C-terminal, cleaved
  stoichiometry N: 2
